Changes are numbered by the printed parent chain. Numbers in names are those of the source.
T1: human CLL-1 on cells (human, UniProt Q5QGZ9 1-265)
T1 sequence (looked up): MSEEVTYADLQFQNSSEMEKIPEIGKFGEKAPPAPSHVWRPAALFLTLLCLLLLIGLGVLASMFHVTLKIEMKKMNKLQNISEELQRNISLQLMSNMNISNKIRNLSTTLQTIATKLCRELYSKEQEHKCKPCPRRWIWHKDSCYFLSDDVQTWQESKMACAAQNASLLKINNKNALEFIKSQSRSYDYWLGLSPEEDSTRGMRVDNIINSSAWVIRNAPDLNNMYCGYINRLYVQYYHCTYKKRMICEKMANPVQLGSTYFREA

B1: hu33C2 (VH3/VL6 (M12)) (antibody, V domains shown)
VH: QVQLVQSGAEVKKPGASVKVSCKASGYSFTGYAMNWVRQAPGQRLEWIGLINPYNGGAMYNQKFKGRATLTVDTSASTAYMELSSLRSEDTAVYYCARDYRYEGHLDYWGQGTLVTVSS
VL: EIVLTQSPATLSLSPGERATLSCSATSSVSYMHWYQQKPGQAPRRWIYDTSKLASGIPARFSGSGSGTSYTLTISSLEPEDFAVYYCQQWSSDSPTFGQGTKLEIK
B2: hu16C6 (VH1/VL1(M14)) (antibody, V domains shown)
VH: QVQLVQSGAEVKKPGASVKISCKASGYSFTGYYMHWVKQSHGQGLEWIGHVNPYNGATSFNRNFKDRASLTVDTSTSTVYMELSSLRSEDSAVYYCGRSAYGYYERHFDYWGQGTLVTVSS
VL: DIVMTQSPDSLAVSLGERATINCKASQSVDYDADSYMNWYQQKPGQPPKLLIYAASNLQSGVPDRFSGSGSGTDFTLTISSLQAEDVAVYYCQQSDRDPLTFGGGTKLEIK
B3: 16C6 (mouse hybridoma clone) (antibody, V domains shown)
VH: EVQLQQSGPELVKPGASVKISCKASGYSFTGYYMHWVKQSHVKSLEWIGHVNPYNGATSFNRNFKDKASLTVDKSSSTAYMELHSLTSEDSAVYYCGRSADGYYERHFDYWGQGTTLTVSS
VL: DIVLTQSPASLAVSLGQRATISCKASQSVDYDGDSYMNWYQQKPGQPPKLLIYAASNLQSGIPARFSGSGSGTDFTLNIHPVEEEDAATYYCQQSDKDPLTFGAGTKLELK
notes: Mouse monoclonal antibody from a Balb/c hybridoma; also called murine 16C6
B4: ch16C6(NA) (antibody, human IgG1, kappa, N297A, V domains shown)
VH: B3 VH with D101Y
VL: DIVLTQSPASLAVSLGQRATISCKASQSVDYDADSYMNWYQQKPGQPPKLLIYAASNLQSGIPARFSGSGSGTDFTLNIHPVEEEDAATYYCQQSDRDPLTFGAGTKLELKR
notes: also called chimeric antibody of 16C6
B5: ch33C2(NA) (antibody, human IgG1, kappa, N297A, V domains shown)
VH: EVQLQQSGPELVKPGASMKISCKASGYSFTGYAMNWVKQSHGKNLEWIGLINPYNGGAMYNQKFKGKATLTVDKSTSTAYMELLSLTSEDSAVYYCARDYRYEGHLDYWGQGTTLTVSS
VL: QIVLTQSPVIMSASPGEKVTMTCSATSSVSYMHWYQQKSGTSPKRWIYDTSKLASGVPVRFSGSGSGTSYSLTISRMEAEDAATYYCQQWSSDSPTFGVGTKLELKR
notes: also called chimeric antibody of 33C2
B6: 33C2 (mouse hybridoma clone) (antibody, V domains shown)
VH: B5 VH with E103D
VL: QIVLTQSPVIMSASPGEKVTMTCSATSSVSYMHWYQQKSGTSPKRWIYDTSKLASGVPVRFSGSGSGTSYSLTISRMEAEDAATYYCQQWSSDSPTFGVGTKLELK
notes: Mouse monoclonal antibody from a Balb/c hybridoma; also called murine 33C2
B7: ch84A2 (N12S) (antibody, V domains shown)
VH: EVQLQQSGPELVKSGASVKMSCKASGYTFTSYVIHWVKQMPGQGLEWIGLFNPYNDDVNYNEKFKGKATLTSDKYSSTAYLDLSSLTSEDSAVYYCAREGVHYGRPWFGYWGQGTLVTVSA
VL: DIKMTQSPSSMSASLGERVTITCKASQDIKSYLNWFQQKPGKSPKTLIYRASRLVDGVPARFSGSESGQDYSLTISSLEFEDMGIYYCLQYDEFPLTFGAGTKLELK
B8: ch84A2(NA/N12S) (antibody, human IgG1, kappa, N297A, V domains shown)
VH: B7 VH
VL: DIKMTQSPSSMSASLGERVTITCKASQDIKSYLNWFQQKPGKSPKTLIYRASRLVDGVPARFSGSESGQDYSLTISSLEFEDMGIYYCLQYDEFPLTFGAGTKLELKR
notes: Chimeric, human IgG1 N297A and human kappa; also called ch84C2; chimeric antibody of 84A2

How the values were obtained:
human CLL-1 on cells [1] = target: T1, human CLL-1 on cells; assay: cell-based or functional assay
human CLL-1 on cells [2] = target: T1, human CLL-1 on cells; assay: hybridoma screening, ELISA and FACS
hFc-Human CLL1 = target: T2, hFc-Human CLL1 (human); assay: ELISA, coated antigen
T2 construct: Human CLL1 with N-terminal human IgG1 Fc, made in-house; also called hFc-huCLL1
Method: Antibody candidates of Example 1.2. were analyzed to compare the ligand binding activity by ELISA, using huCLL1-His and hFc-huCLL1 as ligands.
(§1) Briefly, the antigen (ligand) was coated overnight at 4VC. The antigen coated plate was blocked with 1% BSA in PBS at 4VC for 2 hr and incubated with antibodies at 4° C. for 2 hrs. To find out the EC₅₀ (nM) of each antibody, 4-fold serial dilutions were prepared from an antibody solution of a concentration of 50 nM to 0.2 pM and diluted antibodies were treated to each well, and the plate was washed with 1×PBST. Then Goat anti-Human IgG F(ab′)2 cross-adsorbed secondary antibody conjugated with HRP (horseradish peroxidase) (Thermo, 31414) was added to each well and incubated at 4° C. for 1 hr. After wash, a TMB (3,3′,5,5′-tetramethylbenzidine) substrate (Sigma, T0440) was added to each well and the OD at 450 nm was measured by an ELISA plate reader.

human CLL-1 on cells [3] = target: T1, human CLL-1 on cells; assay: FACS, HL60 cells (2nd Ab only 5.09)
Method: (§2) To evaluate cell binding property, the chimeric antibody candidates of Example 1.2. were analyzed in CLL1 negative cells (HEK293E and Jurkat) and various CLL1 expressing cancer cells by using FACS.
(§3) Briefly, cells were incubated with antibodies at 4° C. for 1 hr. Firstly, the cells were washed with an assay buffer (1% BSA in PBS). Then, an anti-human IgG Fc conjugated with FITC (Fluorescein isothiocyanate) (Sigma, F9512) was added to each well and incubated at 4° C. for 1 hr. After wash, the MFI (Median Fluorescence Intensity) of FITC was measured by BD FACS Cal ibur (BD Biosciences).

human CLL-1 on cells [4] = target: T1, human CLL-1 on cells; assay: FACS, PL21 cells (2nd Ab only 2.82)
Method: as §2, §3

human CLL-1 on cells [5] = target: T1, human CLL-1 on cells; assay: FACS, U937 cells (2nd Ab only 4.77)
Method: as §2, §3

human CLL-1 on cells [6] = target: T1, human CLL-1 on cells; assay: FACS, EOL-1 cells (2nd Ab only 2.53)
Method: as §2, §3

human CLL-1 on cells [7] = target: T1, human CLL-1 on cells; assay: FACS, OCI-AML2 cells (2nd Ab only 3.28)
Method: as §2, §3

human CLL-1 on cells [8] = target: T1, human CLL-1 on cells; assay: FACS, huCLL1_293E cells (2nd Ab only 5.05)
Method: as §2, §3

hFc-Cynomolgus CLL1 = target: T3, hFc-Cynomolgus CLL1 (cynomolgus); assay: ELISA, 50 and 100 ng/well coated antigen; stronger than reference 6E7
T3 construct: Cynomolgus CLL1 with N-terminal human IgG1 Fc, made in-house
Method: as §1
Continuously, antibody candidates of Example 1.2. were analyzed to compare the ligand binding activities by ELISA, using 50 ng/well and 100 ng/well of hFc-Cynomolgus CLL1 as a ligandin the same manner as described above. Genentech's anti-CLL-1 antibody 6E7 was used as a reference.

T3 sequence (chain, as listed by the source limits assumed): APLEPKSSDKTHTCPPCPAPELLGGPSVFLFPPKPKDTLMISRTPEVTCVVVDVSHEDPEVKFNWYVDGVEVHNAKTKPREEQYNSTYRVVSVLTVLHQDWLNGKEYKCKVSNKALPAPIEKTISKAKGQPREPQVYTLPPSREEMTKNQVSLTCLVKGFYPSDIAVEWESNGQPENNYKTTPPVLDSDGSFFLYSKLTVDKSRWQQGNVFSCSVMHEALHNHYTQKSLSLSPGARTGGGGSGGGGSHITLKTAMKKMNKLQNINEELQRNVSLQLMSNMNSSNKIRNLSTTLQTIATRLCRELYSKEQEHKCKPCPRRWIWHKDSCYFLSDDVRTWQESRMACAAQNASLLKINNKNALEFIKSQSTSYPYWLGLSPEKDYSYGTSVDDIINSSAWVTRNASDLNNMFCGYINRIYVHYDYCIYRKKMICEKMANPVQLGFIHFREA

Binder	ADCC reporter bioassay (luminescence), EC50 (human CLL-1 on cells [1])	MFI(FL1-H) (human CLL-1 on cells [3])	MFI(FL1-H) (human CLL-1 on cells [4])	MFI(FL1-H) (human CLL-1 on cells [5])	MFI(FL1-H) (human CLL-1 on cells [6])	MFI(FL1-H) (human CLL-1 on cells [7])	MFI(FL1-H) (human CLL-1 on cells [8])	further results
B1	0.141 nM							
B2	0.13 nM							
B3								binding result (human CLL-1 on cells [2]): binds
B4		18.5	38.6	45.8	3.73	19.5	115	binding result (hFc-Human CLL1): binds; binding result (hFc-Cynomolgus CLL1): binds
B5		19.1	38.8	48.1	3.6	19.3	77.7	binding result (hFc-Human CLL1): binds; binding result (hFc-Cynomolgus CLL1): binds
B6								binding result (human CLL-1 on cells [2]): binds
B7	0.416 nM							
B8		14.5	27.6	30.5	3.36	13	72.5	

From US20250084158A1 (ABL BIO, published 2025)
